Assay results: paper PMC5667929, “Combinatorial action of Grainyhead, Extradenticle and Notch in regulating Hox mediated apoptosis in Drosophila larval CNS”

T1: Exd/Hth-HM (UniProt P40427;O46339 1-376;127-211)
T1 sequence 1: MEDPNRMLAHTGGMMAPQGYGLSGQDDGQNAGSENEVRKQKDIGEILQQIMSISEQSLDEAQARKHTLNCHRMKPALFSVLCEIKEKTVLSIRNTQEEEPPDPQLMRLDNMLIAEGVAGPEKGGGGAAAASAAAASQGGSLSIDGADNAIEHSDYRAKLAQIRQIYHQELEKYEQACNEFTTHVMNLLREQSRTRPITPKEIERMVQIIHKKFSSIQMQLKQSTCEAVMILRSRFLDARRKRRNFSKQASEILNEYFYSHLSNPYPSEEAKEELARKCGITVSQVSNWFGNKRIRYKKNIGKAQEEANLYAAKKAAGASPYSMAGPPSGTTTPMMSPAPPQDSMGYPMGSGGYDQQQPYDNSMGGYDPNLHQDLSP
T1 sequence 2: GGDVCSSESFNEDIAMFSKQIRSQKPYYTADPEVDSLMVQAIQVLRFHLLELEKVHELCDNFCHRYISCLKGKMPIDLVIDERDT

B1: motif-24 (dsDNA)
DNA 1: CGCTCATAAAGTTAACCAACGATTTCATTCCTAAAC
DNA 2: GTTTAGGAATGAAATCGTTGGTTAACTTTATGAGCG
B2: motif-30 Grh1 mutant (dsDNA)
DNA 1: GAAACACGATAACCATAACTAATCC
DNA 2: GGATTAGTTATGGTTATCGTGTTTC

Columns and labels:
Exd/Hth-HM = target: T1, Exd/Hth-HM; test: EMSA; no significant binding; EMSA, 20 ul, 30 min, room temperature; 5X buffer as printed: 20% glycerol, 1 mg/ml BSA, 2.5 mM EDTA, '50mM 1M tris' pH 7.5, 50 mM KCl, 5 mM MgCl2, 2.5 mM DTT, 90 ug/ml poly(dI-dC); proteins 100-200 ng; conditions: protein: recombinant; tags: 6xHis; copies: 1;1
AbdA (Hox) = AbdA (Hox) (UniProt P29555 261-590); test: as above; conditions: protein: recombinant; tags: 6xHis
AbdA (Hox), sequence (P29555 261-590): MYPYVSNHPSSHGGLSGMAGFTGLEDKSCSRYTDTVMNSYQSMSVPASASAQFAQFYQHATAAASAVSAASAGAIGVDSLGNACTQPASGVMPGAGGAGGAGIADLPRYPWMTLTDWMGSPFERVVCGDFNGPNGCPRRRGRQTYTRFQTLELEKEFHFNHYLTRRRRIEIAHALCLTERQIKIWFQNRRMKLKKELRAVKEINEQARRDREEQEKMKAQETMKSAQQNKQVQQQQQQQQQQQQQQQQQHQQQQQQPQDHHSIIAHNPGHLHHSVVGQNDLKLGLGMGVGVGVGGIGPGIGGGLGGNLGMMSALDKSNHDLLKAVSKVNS

Grh = Grh (UniProt P13002 551-1333); test: EMSA; EMSA, 20 ul, 30 min, room temperature; 5X buffer as printed: 20% glycerol, 1 mg/ml BSA, 2.5 mM EDTA, '50mM 1M tris' pH 7.5, 50 mM KCl, 5 mM MgCl2, 2.5 mM DTT, 90 ug/ml poly(dI-dC); proteins 100-200 ng; conditions: protein: recombinant; tags: 6xHis; chain copies: 2
Grh, sequence (P13002 551-1333): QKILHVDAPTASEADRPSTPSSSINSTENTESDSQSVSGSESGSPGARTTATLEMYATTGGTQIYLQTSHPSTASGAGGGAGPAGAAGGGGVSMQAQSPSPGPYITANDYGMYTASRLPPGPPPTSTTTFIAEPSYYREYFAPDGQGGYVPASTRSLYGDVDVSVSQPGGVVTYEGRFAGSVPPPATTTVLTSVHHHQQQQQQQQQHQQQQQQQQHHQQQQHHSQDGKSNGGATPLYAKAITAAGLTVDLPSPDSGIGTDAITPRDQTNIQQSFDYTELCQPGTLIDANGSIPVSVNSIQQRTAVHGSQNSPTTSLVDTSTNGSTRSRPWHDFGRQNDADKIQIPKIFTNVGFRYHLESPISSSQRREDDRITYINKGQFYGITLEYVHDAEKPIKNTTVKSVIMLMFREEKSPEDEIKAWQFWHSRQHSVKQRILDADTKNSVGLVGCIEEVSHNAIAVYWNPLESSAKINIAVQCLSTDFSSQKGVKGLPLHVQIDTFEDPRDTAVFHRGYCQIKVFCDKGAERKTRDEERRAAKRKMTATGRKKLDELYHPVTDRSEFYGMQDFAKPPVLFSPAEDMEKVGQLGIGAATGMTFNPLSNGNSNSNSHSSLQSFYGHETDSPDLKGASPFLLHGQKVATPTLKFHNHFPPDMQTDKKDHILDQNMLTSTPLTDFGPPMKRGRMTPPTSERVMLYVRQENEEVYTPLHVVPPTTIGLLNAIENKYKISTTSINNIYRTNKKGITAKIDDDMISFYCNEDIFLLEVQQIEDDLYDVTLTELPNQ

AbdA (Hox);Exd/Hth-HM = AbdA (Hox);Exd/Hth-HM (Drosophila melanogaster?;Drosophila …, UniProt P29555;P40427;O46339 261-590;1-376;127-211, |); test: as above; conditions: protein: recombinant;recombinant; tags: 6xHis;6xHis; copies: 1;1;1
AbdA (Hox);Exd/Hth-HM, sequence (P29555 261-590, one chain of several): as the sequence (P29555 261-590) above

AbdA (Hox);Grh = AbdA (Hox);Grh (Drosophila melanogaster?;Drosophila …, UniProt P29555;P13002 261-590;551-1333, |); test: EMSA; 'compromised'; later 'abolished completely'; EMSA, 20 ul, 30 min, room temperature; 5X buffer as printed: 20% glycerol, 1 mg/ml BSA, 2.5 mM EDTA, '50mM 1M tris' pH 7.5, 50 mM KCl, 5 mM MgCl2, 2.5 mM DTT, 90 ug/ml poly(dI-dC); proteins 100-200 ng; conditions: protein: recombinant;recombinant; tags: 6xHis;6xHis; copies: 1;2
AbdA (Hox);Grh, sequence (P29555 261-590, chain 1 of 2): as the sequence (P29555 261-590) above
AbdA (Hox);Grh, sequence (P13002 551-1333, chain 2 of 2): as the sequence (P13002 551-1333) above

[1] = target: AbdA (Hox);Exd/Hth-HM;Grh (Drosophila melanogaster?;Drosophila …, UniProt P29555;P40427;O46339;P13002 261-590;1-376;127-211;551-1333, ||); test: EMSA; EMSA, 20 ul, 30 min, room temperature; 5X buffer as printed: 20% glycerol, 1 mg/ml BSA, 2.5 mM EDTA, '50mM 1M tris' pH 7.5, 50 mM KCl, 5 mM MgCl2, 2.5 mM DTT, 90 ug/ml poly(dI-dC); proteins 100-200 ng; conditions: protein: recombinant;recombinant;recombinant; tags: 6xHis;6xHis;6xHis; copies: 1;1;1;2
AbdA (Hox);Exd/Hth-HM;Grh, sequence (P29555 261-590, chain 1 of 4, one chain of several): as the sequence (P29555 261-590) above
AbdA (Hox);Exd/Hth-HM;Grh, sequence (P13002 551-1333, chain 4 of 4, one chain of several): as the sequence (P13002 551-1333) above

Binder	binding result (Exd/Hth-HM)	binding result (AbdA (Hox))	binding result (Grh)	binding result (AbdA (Hox);Exd/Hth-HM)	binding result (AbdA (Hox);Grh)	binding result [1]
B1	no binding	no binding	no binding	binds		
B2				binds	no binding	no binding
